Consider one molecule from patent CN114409777A (SHAANXI HISINOVEC SCIENCE AND TECH LIMITED COMPANY, dated 2022).

The assay has as its target T1, 脆弱拟杆菌毒素BFT1全长蛋白(BFT1-sFL)，不含信号肽 (Bacteroides fragilis (产肠毒素脆弱拟杆菌, ETBF), UniProt P54355 26-405).
T1 construct: domain: 不含信号肽全长 (full length without signal peptide, pro domain kept); Recombinant protein from E. coli; This is not the processed catalytic domain alone: the pro domain is still present; also called BFT重组蛋白; BFT全长
T1 sequence: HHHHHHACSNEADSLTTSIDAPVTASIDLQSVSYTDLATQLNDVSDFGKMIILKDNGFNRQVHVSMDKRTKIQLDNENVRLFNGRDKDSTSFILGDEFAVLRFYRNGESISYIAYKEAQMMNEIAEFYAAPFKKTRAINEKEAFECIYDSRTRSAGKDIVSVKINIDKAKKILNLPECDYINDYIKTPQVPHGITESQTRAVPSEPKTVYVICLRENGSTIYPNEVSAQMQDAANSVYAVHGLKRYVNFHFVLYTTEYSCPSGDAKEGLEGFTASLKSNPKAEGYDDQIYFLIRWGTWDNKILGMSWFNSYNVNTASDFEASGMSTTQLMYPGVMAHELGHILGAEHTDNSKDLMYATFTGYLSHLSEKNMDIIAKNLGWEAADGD
Kind of assay: ITC (Microcal PEAQ-ITC), 20℃, nanobody about 20 μM, BFT1-sFL about 200 μM, 20mM Tris-HCl pH 8.0, 150mM NaCl, 5% glycerol.

B1: 结直肠癌相关的抗脆弱拟杆菌毒素蛋白激活体的特异性纳米抗体Nb3.27 (VHH)
VHH: QVQLQESGGGLVQAGGSLRLSCTYSGQTFSAWAMGWFRQAPGKERETVATINWNGERTQYADAVKGRFTISRDNAKDTVYLEMNSLKPEDTAVYYCASMMGTYYSGSPKNWGQGTQVTVSS
notes: also called BFT-211纳米抗体; BFT1-sFL纳米抗体
One may read the Kd as the concentration at which binding is half-saturated. B1 registered a Kd of 15.3 nM.
